Literature values, collected in patent US20030092000.

Tests used:
Details in all cases: method not stated
[1] = test system: FAD 1A (designed three-finger ZFP) (synthetic)
[2] = test system: FAD 1B (designed three-finger ZFP) (synthetic)
[3] = test system: FAD 4A (designed three-finger ZFP) (synthetic)
[4] = test system: FAD 4B (designed three-finger ZFP) (synthetic)
[5] = test system: FAD 2A (designed three-finger ZFP) (synthetic)
[6] = test system: FAD 3B (designed three-finger ZFP) (synthetic)
[7] = test system: FAD 3A (designed three-finger ZFP) (synthetic)
[8] = test system: FAD 5A (designed three-finger ZFP) (synthetic)

Sequence: GAGGTAGAGG (double strand) [FAD 1 target]
- Kd [1]: 10 nM
- Kd [2]: 10 nM

Sequence: GAGGTGGAAG (double strand) [FAD 4 target]
- Kd [3]: 10 nM
- Kd [4]: 2 nM

Sequence: GTCGTGTGGA (double strand) [FAD 2 target]
- Kd [5]: 100 nM

Sequence: GTTGAGGAAG (double strand) [FAD 3 target]
- Kd [6]: 100 nM
- Kd [7]: 100 nM

Sequence: TAGGTGGTGA (double strand) [FAD 5 target]
- Kd [8]: 10 nM
